Laboratory results taken from article PMC8092709 (Journal of Virology, 2021).

Target: human aminopeptidase N (hAPN), residues 66 to 967 (human, UniProt P15144 66-967)
Test: SPR

Chain of human aminopeptidase N (hAPN), residues 66 to 967 (P15144 66-967): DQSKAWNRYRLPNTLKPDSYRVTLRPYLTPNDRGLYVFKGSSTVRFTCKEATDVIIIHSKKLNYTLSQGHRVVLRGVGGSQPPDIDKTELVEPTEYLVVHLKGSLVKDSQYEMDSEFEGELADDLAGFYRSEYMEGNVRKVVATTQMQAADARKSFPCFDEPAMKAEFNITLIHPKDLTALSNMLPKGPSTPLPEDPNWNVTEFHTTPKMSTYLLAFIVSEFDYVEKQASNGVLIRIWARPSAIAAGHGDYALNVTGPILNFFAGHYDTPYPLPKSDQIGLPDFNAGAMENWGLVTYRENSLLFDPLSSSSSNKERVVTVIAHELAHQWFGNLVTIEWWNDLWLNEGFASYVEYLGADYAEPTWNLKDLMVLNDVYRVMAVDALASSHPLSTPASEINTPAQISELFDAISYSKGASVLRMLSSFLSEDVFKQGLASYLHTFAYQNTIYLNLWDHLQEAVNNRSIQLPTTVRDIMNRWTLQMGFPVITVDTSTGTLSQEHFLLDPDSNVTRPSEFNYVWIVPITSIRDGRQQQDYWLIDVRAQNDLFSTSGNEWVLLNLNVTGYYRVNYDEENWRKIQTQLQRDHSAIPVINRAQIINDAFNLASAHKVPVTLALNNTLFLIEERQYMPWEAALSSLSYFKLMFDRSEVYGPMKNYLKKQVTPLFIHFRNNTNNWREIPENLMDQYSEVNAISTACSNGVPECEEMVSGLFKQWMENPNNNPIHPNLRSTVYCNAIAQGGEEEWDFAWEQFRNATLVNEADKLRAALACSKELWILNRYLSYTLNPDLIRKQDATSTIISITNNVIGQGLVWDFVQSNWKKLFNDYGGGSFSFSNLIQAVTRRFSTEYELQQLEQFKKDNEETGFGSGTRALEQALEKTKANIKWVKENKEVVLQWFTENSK

B1: HCoV-229E S1-RBD (residues 295 to 428) with C-terminal Fc tag (Fc fusion)
chain: VYHKHTFIVLYVDFKPQSGGGKCFNCYPAGVNITLANFNETKGPLCVDTSHFTTKYVAVYANVGRWSASINTGNCPFSFGKVNNFVKFGSVCFSLKDIPGGCAMPIVANWAYSKYYTIGSLYVSWSDGDGITGV
In the case of B1, the Kd is reported as 36 nM, the koff is reported as 0.00115 s⁻¹ and the kon is reported as 32000 M⁻¹ s⁻¹.

B2: HCoV-229E S1 (residues 1 to 536) with C-terminal Fc tag (Fc fusion)
chain: CQTTNGLNTSYSVCNGCVGYSENVFAVESGGYIPSDFAFNNWFLLTNTSSVVDGVVRSFQPLLLNCLWSVSGLRFTTGFVYFNGTGRGDCKGFSSDVLSDVIRYNLNFEENLRRGTILFKTSYGVVVFYCTNNTLVSGDAHIPFGTVLGNFYCFVNTTIGNETTSAFVGALPKTVREFVISRTGHFYINGYRYFTLGNVEAVNFNVTTAETTDFCTVALASYADVLVNVSQTSIANIIYCNSVINRLRCDQLSFDVPDGFYSTSPIQSVELPVSIVSLPVYHKHTFIVLYVDFKPQSGGGKCFNCYPAGVNITLANFNETKGPLCVDTSHFTTKYVAVYANVGRWSASINTGNCPFSFGKVNNFVKFGSVCFSLKDIPGGCAMPIVANWAYSKYYTIGSLYVSWSDGDGITGVPQPVEGVSSFMNVTLDKCTKYNIYDVSGVGVIRVSNDTFLNGITYTSTSGNLLGFKDVTKGTIYSITPCNPPDQLVVYQQAVVGAMLSENFTSYGFSNVVELPKFFYA
Binder B2 has a Kd of 255 nM, a koff of 0.000226 s⁻¹ and a kon of 886 M⁻¹ s⁻¹.
